The values below come from paper PMC11434109, “VIK‐Mediated Auxin Signaling Regulates Lateral Root Development in Arabidopsis” (Advanced Science, 2024).

In the assay the target is T1, His-VIK (Arabidopsis, UniProt Q9XI87 1-438).
T1 construct: VIK, Arabidopsis, AT1G14000, N-terminal 6 x histidine tag and a full-length VIK protein; also called recombinant His-VIK; source: E. coli BL21 (DE3), purified (Ni NTA beads); not shown: His6, N-terminal, kept
T1 sequence (looked up): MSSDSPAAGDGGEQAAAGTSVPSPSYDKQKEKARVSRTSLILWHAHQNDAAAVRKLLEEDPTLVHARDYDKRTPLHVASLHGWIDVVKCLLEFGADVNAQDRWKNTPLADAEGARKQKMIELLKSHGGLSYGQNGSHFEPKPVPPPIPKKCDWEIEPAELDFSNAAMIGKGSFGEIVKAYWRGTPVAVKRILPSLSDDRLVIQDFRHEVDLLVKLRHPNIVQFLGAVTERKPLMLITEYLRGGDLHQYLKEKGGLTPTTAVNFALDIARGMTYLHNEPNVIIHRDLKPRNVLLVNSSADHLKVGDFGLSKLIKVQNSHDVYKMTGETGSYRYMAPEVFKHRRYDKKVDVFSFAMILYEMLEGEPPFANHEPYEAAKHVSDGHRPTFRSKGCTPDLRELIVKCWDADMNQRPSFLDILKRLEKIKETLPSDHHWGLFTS
The assay can be described thus: pull-down; GST-LBD18 immobilised on Glutathione Beads, incubated with His-VIK or His-MBP at 4 °C for 4 h; washed five times with 1 x PBS; blot with anti-His and anti-GST. The conditions noted are these: both partners purified.

B1: GST-LBD18 (natural protein, Arabidopsis, UniProt O22131 1-262, looked up)
chain: MSGGGNTITAVGGGGGGCGGGGSSGGGGSSGGGGGGPCGACKFLRRKCVPGCIFAPYFDSEQGSAYFAAVHKVFGASNVSKLLLHIPVHRRSDAVVTICYEAQARIRDPIYGCVAHIFALQQQVVNLQAEVSYLQAHLASLELPQPQTRPQPMPQPQPLFFTPPPPLAITDLPASVSPLPSTYDLASIFDQTTSSSAWATQQRRFIDPRHQYGVSSSSSSVAVGLGGENSHDLQALAHELLHRQGSPPPAATDHSPSRTMSR
notes: the words full length are not used for this construct; also called recombinant GST-LBD18; source: E. coli BL21 (DE3), purified (Glutathione Beads); not shown: GST, N-terminal, kept
With B1, the binding result was “binds”.
